Drawing on US20250250357A1 (NANJING ZAIMING PHARMACEUTICAL, published 2025), this text covers OD450 for 5 molecules.

The chains are these.
B1: S009-F7.67.12 chimeric antibody (antibody, human IgG1, kappa, V domains shown)
VH: QVQLQQPGTELVKPGASVRLSCRASGYSFSSYWMHWVKQRPGQGLEWLGNINPTTGDINYNEKFRNRATLAVDKSSTTAYLQLTSLTSEDSAVYFCVRHDGFLWGQGTTLTVSS
VL: DIQMTQSPASLSASVGETVTITCRASENIYSYLAWYQQKQGKSPQLLVYYAKTLAEGVSSRFSGSGSGTQFSLKINSLQPEDFGTYYCQHQFGTPRTFGGGTKLEIRR
notes: Human-murine chimeric antibody, human IgG1/kappa constant regions
B2: S009-F7.61.21 chimeric antibody (antibody, human IgG1, kappa, V domains shown)
VH: DVQLQQSGPELVEPGASVRIPCKAAGHTFTDYNVDWVKQSHGQSLEWIGDVNPNTDGAIYNQKFEGKATLTVDTSSSTAYMELRSLTSEDTAVYFCARRRLGQGGFDSWGQGTTLTVSS
VL: QVVLTQSPAIMSASPGEKVTLTCGASSSLISKYLYWYQQKPGSSPKLWIYSTSNLASGVPARFSGSGSGTSYSLTISSMEAEDAASYFCHQWSSYPYTFGGGTKVEIKR
notes: as for B1
B3: S009-F7.66.12 chimeric antibody (antibody, human IgG1, kappa, V domains shown)
VH: QIPLQQSGPELVKPGASVRISCKASDYAFSSSWMNWVKQRPEKGLEWIGRIFVESGNTHYNDKFNGKATLTADKSSRTAYIQLSSLTSEDSAVYFCTRENIFYHGHSSWFAYWGQGTLVTVSA
VL: DIVLTQSPASLVVSLGQRATISCRAGESVDDFGISYVHWYQQKPGQPPKLLIYRAANLESGIPARFSGSGSRTDFTLTINPVETDDVAIYYCQQNNKDPFTFGSGTKLEIKR
notes: as for B1
B4: S009-F7.65.13 chimeric antibody (antibody, human IgG1, kappa, V domains shown)
VH: EVQLQQSGPELVKPGTSVKILCKASGDTFTAYNMDWVKQRHGQSLEWIGDINPNTDSTIYNQKFEGKAILTVDKSSSTAYMELRSLTSEDTAVYYCARRKLGRGYFDYWGQGTTLTVSS
VL: QIVLTQSPAIMSASPGEKVTMTCSVNLSVRYIYWYQQKPGSSPRLLIHDTSNLASGVPVRFSGSGSGTSYSLTISRMEAEDAATYYCQQWSSFPYTFGGGTKLEIKR
notes: as for B1
B5: S009-F7.69.8 chimeric antibody (antibody, human IgG1, kappa, V domains shown)
VH: EVHLQQSGPELVKPGASVRIPCKASGYTFTDYNMDWVKQSHGKSLEWIGDINPDNGGTIYTQKFKGKATLTVDKSSSTAYMELRSLTSEDTAVYYCARRLHYYGSSGLDYWGQGTTLTVSS
VL: DIQMTQSPASLSAYVGETVTITCRASGNIHNYLAWYQQKQGKSPQLLVYNAKTLADGVPSRFSGSGSGTQYSLKINSLQPEDFGSYYCQHFWSTVWTFGGGTKLEIKR
notes: as for B1

T1 sequence (Q13421 other isoform, or with tags, fused parts or gaps): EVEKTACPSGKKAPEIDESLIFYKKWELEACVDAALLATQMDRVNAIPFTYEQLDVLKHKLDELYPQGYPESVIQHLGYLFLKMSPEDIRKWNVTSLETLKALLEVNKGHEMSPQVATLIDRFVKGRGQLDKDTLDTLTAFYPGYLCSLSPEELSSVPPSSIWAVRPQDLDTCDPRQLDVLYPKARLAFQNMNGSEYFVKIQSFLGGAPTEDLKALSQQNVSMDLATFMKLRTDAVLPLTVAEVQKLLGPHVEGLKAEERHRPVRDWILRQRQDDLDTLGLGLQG

One experiment addresses T1, human MSLN-FL-his protein (human, UniProt Q13421 296-580).
T1 construct: Made in HEK293E cells, purified on nickel column; also called hMSLN-FL-his; human MSLN full-length protein; not shown: His tag
In words: ELISA, coated antigen, antibody 0.02 nM. A general note: In an ELISA, binding on a coated surface is turned into a signal by an enzyme label.
B1: the OD450 is 0.75.

As to B2, the OD450 worked out at 0.95.

B3 returned an OD450 of 1.77.

B4: the OD450 came out at 1.35.

For B5, the OD450 turned out to be 1.42.

The target in another experiment is T2, human MSLN-R1-his protein (human, UniProt Q13421 296-390).
T2 construct: Made in HEK293E cells, purified on nickel column; also called hMSLN-R1-his; human MSLN-R1 protein; not shown: His tag
T2 chain: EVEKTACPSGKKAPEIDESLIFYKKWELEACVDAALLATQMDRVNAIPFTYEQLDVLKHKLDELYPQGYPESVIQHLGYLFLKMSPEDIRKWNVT
In words: ELISA, coated antigen, antibody 0.02 nM.
B1 displayed an OD450 of 0.05.

B2: the OD450 amounted to 0.05.

The molecule B3 showed an OD450 of 0.04.

Take B4: the OD450 was 0.05.

Consider B5, for which the OD450 was found to be 0.04.

Another experiment has as its target T1, human MSLN-FL-his protein. In words: ELISA, coated antigen, antibody 200 nM.
As for B1, the OD450 turned out to be 1.96.

B2 displayed an OD450 of 2.15.

Take B3: the OD450 came to 2.1.

The molecule B4 displayed an OD450 of 2.13.

As to B5, the OD450 turned out to be 2.1.

The next experiment has as its target T2, human MSLN-R1-his protein. In words: ELISA, coated antigen, antibody 200 nM.
Description: (§1) The plate was sealed with a plastic film and incubated at 4° C. overnight. The next day, the plate was washed twice with PBST, and a blocking buffer [PBS+2% (w/w) BSA] was added for blocking at room temperature for 2 h. The blocking buffer was discarded, and a chimeric antibody or negative control antibody serially diluted from 100 nM was added at 50 μL/well. After incubation at 37° C. for 2 h, the plate was washed 3 times with PBST. […] After incubation at 37° C. for 2 h, the plate was washed 5 times with PBST. A TMB substrate was added at 50 μL/well for incubation at room temperature for 5-10 min, and then a stop solution (1.0 N HCl) was added at 50 μL/well.
Take B1: the OD450 was 0.07.

Regarding B2, the OD450 is 0.07.

B3 displayed an OD450 of 0.13.

B4: the OD450 came to 0.08.

Regarding B5, the OD450 was determined as 0.11.

For another experiment, the target named is T2, human MSLN-R1-his protein. In words: ELISA, coated antigen, antibody 20 nM.
Description: as §1
Regarding B1, the OD450 was 0.05.

Regarding B2, the OD450 was found to be 0.05.

Turning to B3, the OD450 was 0.06.

In turn, B4 registered an OD450 of 0.05.

B5 returned an OD450 of 0.06.

In the next experiment the target is T1, human MSLN-FL-his protein. In words: ELISA, coated antigen, antibody 2 nM.
Description: as §1
For B1, the OD450 was 2.07.

As for B2, the OD450 was 2.14.

B3 came in with an OD450 of 2.23.

In the case of B4, the OD450 amounted to 2.11.

In turn, B5 displayed an OD450 of 2.29.

The target in the next experiment is T1, human MSLN-FL-his protein. The experiment can be described thus: ELISA, coated antigen, antibody 0.002 nM.
Take B1: the OD450 turned out to be 0.23.

For the molecule B2, the OD450 amounted to 0.23.

In turn, B3 yielded an OD450 of 1.19.

Molecule B4 displayed an OD450 of 0.52.

B5 returned an OD450 of 0.43.

The target of the next experiment is T2, human MSLN-R1-his protein. The experiment can be described thus: ELISA, coated antigen, antibody 0.2 nM.
Description: as §1
The molecule B1 yielded an OD450 of 0.05.

B2 had an OD450 of 0.05.

As to B3, the OD450 stood at 0.04.

Regarding B4, the OD450 came to 0.05.

In turn, B5 came in with an OD450 of 0.05.

In a further experiment the target is T2, human MSLN-R1-his protein. In words: ELISA, coated antigen, no antibody (blank).
Description: as §1
Consider B1, for which the OD450 is 0.07.

In turn, B2 yielded an OD450 of 0.07.

On to B3, for which the OD450 stood at 0.06.

In turn, B4 registered an OD450 of 0.07.

On to B5, for which the OD450 was 0.07.

A further experiment has as its target T1, human MSLN-FL-his protein. The experiment can be described thus: ELISA, coated antigen, antibody 0.2 nM.
Description: as §1
Regarding B1, the OD450 stood at 1.78.

Take B2: the OD450 amounted to 1.96.

With B3, the OD450 is 2.24.

On to B4, for which the OD450 stood at 2.1.

With B5, the OD450 was 2.15.

Another experiment deals with T2, human MSLN-R1-his protein. In words: ELISA, coated antigen, antibody 2 nM.
Description: as §1
With B1, the OD450 is 0.05.

Molecule B2 had an OD450 of 0.05.

As for B3, the OD450 stood at 0.05.

The molecule B4 showed an OD450 of 0.05.

Turning to B5, the OD450 was 0.04.

Another experiment has as its target T2, human MSLN-R1-his protein. The experiment can be described thus: ELISA, coated antigen, antibody 0.002 nM.
Description: as §1
In the case of B1, the OD450 came out at 0.05.

Consider B2, for which the OD450 worked out at 0.05.

B3 gave an OD450 of 0.04.

On to B4, for which the OD450 turned out to be 0.05.

Regarding B5, the OD450 came out at 0.05.

Another experiment has as its target T1, human MSLN-FL-his protein. In words: ELISA, coated antigen, antibody 0.0002 nM.
As to B1, the OD450 was 0.13.

Consider B2, for which the OD450 stood at 0.09.

B3 gave an OD450 of 0.77.

With B4, the OD450 is 0.24.

The molecule B5 showed an OD450 of 0.13.

The next experiment concerns the target T1, human MSLN-FL-his protein. The experiment can be described thus: ELISA, coated antigen, antibody 20 nM.
B1 registered an OD450 of 2.23.

As to B2, the OD450 was 2.14.

B3 came in with an OD450 of 2.2.

Consider B4, for which the OD450 was 2.12.

As to B5, the OD450 stood at 2.26.

In another experiment the target is T1, human MSLN-FL-his protein. The experiment can be described thus: ELISA, coated antigen, no antibody (blank).
Description: as §1
Turning to B1, the OD450 came to 0.05.

B2 returned an OD450 of 0.06.

In turn, B3 gave an OD450 of 0.07.

In turn, B4 displayed an OD450 of 0.06.

B5: the OD450 was found to be 0.06.

A further experiment concerns the target T2, human MSLN-R1-his protein. In words: ELISA, coated antigen, antibody 0.0002 nM.
Description: as §1
Regarding B1, the OD450 was 0.04.

As for B2, the OD450 was determined as 0.05.

B3 came in with an OD450 of 0.06.

On to B4, for which the OD450 stood at 0.05.

Regarding B5, the OD450 was 0.05.
